IC50 data for 1 molecule are collected here from US20110142849A1 (IRM, published 2011).

In this experiment the target is T1, recombinant human Pcsk9 (aa 31-692) with C-terminal his6 tag (human, UniProt Q8NBP7 31-692).
T1 construct: In the TR-FRET assay it carried a fluorophore (hPcsk9-AF); also called hPCSK9; hPcsk9
Briefly: TR-FRET, disruption of hLDL-R-Eu and hPcsk9-AF. The protocol:
The TR-FRET assay was performed in 384-well white, shallow plates (Perkin Elmer, 6008280). hPcsk9-AF (10.7 nM) was incubated with serial dilutions of unlabeled hPcsk9 protein, EGF-A peptide, or NVP-LFU720-AX-1 antibody for 30 minutes at room temperature in 15 μL of assay buffer (20 mM HEPES, pH 7.2, 150 mM NaCl, 1 mM CaCl₂, 0.1% v/v Tween 20, and 0.1% w/v BSA). This was followed by addition of 5 μL of hLDL-R-Eu (4 nM) in assay buffer to the hPcsk9 and NVP-LFU720-AX-1 preincubated complex, and incubation at room temperature for 90 minutes. The final concentrations of these labeled proteins were 8 nM of hPcsk9-AF and 1 nM of hLDL-R-Eu. The TR-FRET signal was measured with EnVision 2100 multilabel reader (Perkin Elmer) at 330 nm excitation and 665 nm emission. Data was converted to normalized values using the following formula: [(665 nm value×10,000)/(615 nm value)]. The percentage inhibition was calculated with the following formula: 100-[(normalized value of treated sample/averaged normalized value of untreated samples)×100]. The percentage inhibition dose response curves were plotted using Prism version 5 with the formula, Y=Bottom+(Top−Bottom)/(1+10̂((LogIC₅₀−X)*HillSlope)) (GraphPad Prism Software).
TR-FRET assay was used for determining if the anti-hPcsk9 antibody NVP-LFU720 could disrupt the interaction between hPcsk9-AF and hLDL-R-Eu labeled proteins. […]
Background: Time-resolved FRET reads energy transfer from a long-lived donor to a nearby acceptor.

The term IC50 denotes the midpoint of a concentration-inhibition curve.

B1: NVP-LFU720 (antibody, V domains shown)
VH: EVQLQQSGAELMKPGASVKLSCTASGFNIKDMYMSWVRQRPEQGLEWIGRIDPANGHTNYDPKFQAKATITTDTSSKTAYLHLSSLTSEDTAVYYCARSYYYYAMDYWGQGTSVTVSS
VL: QIVLTQSPAIMSASPGEKVTMTCSASSSVSYMHWYQQKPGSSPRLWIYLTFNLASGVPARFSGSGSGTSYSLSISSMEAEDAATYYCLQWSSDPPTFGSGTKLEIK
notes: Murine anti-human Pcsk9 IgG1-kappa monoclonal antibody from a hybridoma; also called 5P20; NVP-LFU720-AX-1
Regarding B1, the IC50 is greater than 1000 nM.
